Assay results: the supplement of paper PMC5998384

Columns and labels:
HeLa Kyoto [1] = assay: solubility change mitosis vs G1/S (difference of NP-40 vs SDS log2 ratios) (log2 ratio difference); higher = more soluble in mitosis
HeLa Kyoto [2] = assay: thermal stability score vs G1/S (z-score of summed log2 fold changes over temperatures); higher = more thermally stable than in G1/S
HeLa Kyoto [3] = assay: solubility in G1/S (NP-40 vs SDS abundance) (log2 ratio); higher = more soluble; details: cell cycle stage: G1/S
[4] = cell cycle stage: early G1 (4.5 h after nocodazole release)
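Wherever solubility change mitosis vs G1/S (difference of NP-40 vs SDS log2 ratios) is given: synchronized HeLa Kyoto cells (double thymidine block for G1/S, nocodazole release for mitosis), protein amounts in NP-40 versus SDS lysates quantified by mass spectrometry, three biological replicates.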
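Wherever solubility in G1/S (NP-40 vs SDS abundance) is given: HeLa Kyoto cells arrested at G1/S by double thymidine block, proteins quantified by TMT10plex mass spectrometry in mild NP-40 versus SDS extracts, three biological replicates.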
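Wherever thermal stability score vs G1/S (z-score of summed log2 fold changes over temperatures) is given: synchronized HeLa Kyoto cells, proteins quantified by TMT10plex mass spectrometry, three biological replicates, mitosis taken 0.5 h after nocodazole release, G1/S directly after double thymidine block.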

Row | Substance | solubility change mitosis (log2) (HeLa Kyoto [1]) | thermal stability score (HeLa Kyoto [2]; [4]) | thermal stability score (HeLa Kyoto [2]; cell cycle stage: mitosis) | solubility in G1/S (log2) (HeLa Kyoto [3])
1 | MATPDVSVHMEEVVVVTTPDTAVDGSGVEGVKTVLVTTNLAPHGGDLTEDNMETENAAAAAAAAFTASSQLKEAVLVKMAEEGENLEAEIVYPITCGDSRANLIWRKFVCPGINVKCVQYDEHVISPKEFVHLAGKSTLKDWKRAIRMNGIMLRKIMDSGELDFYQHDKVCSNTCRSTKIDLSGARVSLSSPTSAEYIPLTPAAADVNGSPATITIETCEDPGDWTAAIGDDTFTFWRGLKDAGLLDEVIQEFHQELVETMRGLQQRVQDPPLQLRDAVLLNNIVQNFGMLDLVKKVLASHKCQMDRSREQYARDLAALEQQCDEHRRRAKELKHKSQHLSNVLMTLTPVSLPPPVKRPRLARATSGPAAMASQVLTQSAQLALGPGVPVPQLTSVPLGKVVSTLPSTVLGKGSLQAPPASSPASPLLGGYTVLASSGSTYPSTVEIHPDASSLTVLSTAAVQDGSTVFKVVSPLQLLTLPGLGPTLQNVAQASPGSSTIVTVPAGAAPGPEEHTATIEVAAMAEDHERK [GMEB2] | 0.0606 | 0.359 | 0.761 | -0.0692
2 | MDSQELKTLINYYCQERYFHHVLLVASEGIKRYGSDPVFRFYHAYGTLMEGKTQEALREFEAIKNKQDVSLCSLLALIYAHKMSPNPDREAILESDARVKEQRKGAGEKALYHAGLFLWHIGRHDKAREYIDRMIKISDGSKQGHVLKAWLDITRGKEPYTKKALKYFEEGLQDGNDTFALLGKAQCLEMRQNYSGALETVNQIIVNFPSFLPAFVKKMKLQLALQDWDQTVETAQRLLLQDSQNVEALRMQALYYVCREGDIEKASTKLENLGNTLDAMEPQNAQLFYNITLAFSRTCGRSQLILQKIQTLLERAFSLNPQQSEFATELGYQMILQGRVKEALKWYKTAMTLDETSVSALVGFIQCQLIEGQLQDADQQLEFLNEIQQSIGKSAELIYLHAVLAMKKNKRQEEVINLLNDVLDTHFSQLEGLPLGIQYFEKLNPDFLLEIVMEYLSFCPMQPASPGQPLCPLLRRCISVLETVVRTVPGLLQTVFLIAKVKYLSGDIEAAFNNLQHCLEHNPSYADAHLLLAQVYLSQEKVKLCSQSLELCLSYDFKVRDYPLYHLIKAQSQKKMGEIADAIKTLHMAMSLPGMKRIGASTKSKDRKTEVDTSHRLSIFLELIDVHRLNGEQHEATKVLQDAIHEFSGTSEEVRVTIANADLALAQGDIERALSILQNVTAEQPYFIEAREKMADIYLKHRKDKMLYITCFREIAERMANPRSFLLLGDAYMNILEPEEAIVAYEQALNQNPKDGTLASKMGKALIKTHNYSMAITYYEAALKTGQKNYLCYDLAELLLKLKWYDKAEKVLQHALAHEPVNELSALMEDGRCQVLLAKVYSKMEKLGDAITALQQARELQARVLKRVQMEQPDAVPAQKHLAAEICAEIAKHSVAQRDYEKAIKFYREALVHCETDNKIMLELARLYLAQDDPDSCLRQCALLLQSDQDNEAATMMMADLMFRKQDYEQAVFHLQQLLERKPDNYMTLSRLIDLLRRCGKLEDVPRFFSMAEKRNSRAKLEPGFQYCKGLYLWYTGEPNDALRHFNKARKDRDWGQNALYNMIEICLNPDNETVGGEVFENLDGDLGNSTEKQESVQLAVRTAEKLLKELKPQTVQGHVQLRIMENYCLMATKQKSNVEQALNTFTEIAASEKEHIPALLGMATAYMILKQTPRARNQLKRIAKMNWNAIDAEEFEKSWLLLADIYIQSAKYDMAEDLLKRCLRHNRSCCKAYEYMGYIMEKEQAYTDAALNYEMAWKYSNRTNPAVGYKLAFNYLKAKRYVDSIDICHQVLEAHPTYPKIRKDILDKARASLRP [TTC21B] | -0.211 | 1.06 | 0.205 | -0.116
3 | MEASLGIQMDEPMAFSPQRDRFQAEGSLKKNEQNFKLAGVKKDIEKLYEAVPQLSNVFKIEDKIGEGTFSSVYLATAQLQVGPEEKIALKHLIPTSHPIRIAAELQCLTVAGGQDNVMGVKYCFRKNDHVVIAMPYLEHESFLDILNSLSFQEVREYMLNLFKALKRIHQFGIVHRDVKPSNFLYNRRLKKYALVDFGLAQGTHDTKIELLKFVQSEAQQERCSQNKSHIITGNKIPLSGPVPKELDQQSTTKASVKRPYTNAQIQIKQGKDGKEGSVGLSVQRSVFGERNFNIHSSISHESPAVKLMKQSKTVDVLSRKLATKKKAISTKVMNSAVMRKTASSCPASLTCDCYATDKVCSICLSRRQQVAPRAGTPGFRAPEVLTKCPNQTTAIDMWSAGVIFLSLLSGRYPFYKASDDLTALAQIMTIRGSRETIQAAKTFGKSILCSKEVPAQDLRKLCERLRGMDSSTPKLTSDIQGHASHQPAISEKTDHKASCLVQTPPGQYSGNSFKKGDSNSCEHCFDEYNTNLEGWNEVPDEAYDLLDKLLDLNPASRITAEEALLHPFFKDMSL [CDC7] | 0.0299 | 2.43 | 2.74 | -0.0102
4 | MED13 | -0.112 | -0.573 | -0.435 | -0.213
